Data taken from patent US20180037631A1 (Bristol-Myers Squibb, published 2018).
Values joined by “and” are separate entries in the source; they are usually repeats but may differ in a detail not shown here. Equal values may be shown once. Read-outs that look alike come from different tables or passages of the source.

Tests used:
[1] = molecular target: T1, EGFR on the surface of human tumour cells (A431, H292) (human, UniProt P00533 25-1210); test: cell-based or functional assay
[2] = molecular target: T2, IGF-IR on human tumour cells (H292, MCF-7, RH41) (human, UniProt P08069 31-1367); test: cell-based or functional assay
[3] = molecular target: T3, Recombinant human EGFR-Fc (aa 1-645 of the extracellular domain of human EGFR fused to human Fc) (human, UniProt P00533 25-645)
T3 construct: range 1-645; bought from R&D Systems; also called EGFR645-Fc; EGFR-Fc (HER-1); not shown: human Fc

[4] = molecular target: T4, IGF1R-Fc (extracellular domain of human IGF1R aa 1-932 fused to hinge and constant regions of human IgG1) (human, UniProt P08069 31-932)
T4 construct: range 1-932; made in house by transient transfection, purified on Protein A; also called IGF-IR-Fc; not shown: hinge and constant regions of human IgG1

[5] = molecular target: T1, EGFR on the surface of human tumour …
[6] = molecular target: T1, EGFR on the surface of human tumour …; test: cell-based or functional assay; remark: listed apart in the source
[7] = molecular target: T2, IGF-IR on human tumour cells (H292, …); test: cell-based or functional assay; remark: listed apart in the source
[8] = molecular target: T1, EGFR on the surface of human tumour …; remark: listed apart in the source
[9] = molecular target: T3, Recombinant human EGFR-Fc (aa 1-645 of …); remark: listed apart in the source
[10] = molecular target: T4, IGF1R-Fc (extracellular domain of human …); remark: listed apart in the source
[11] = molecular target: T1, EGFR on the surface of human tumour …; test: cell-based or functional assay; remark: listed apart in the source
[12] = molecular target: T4, IGF1R-Fc (extracellular domain of human …); remark: listed apart in the source
[13] = molecular target: T1, EGFR on the surface of human tumour …; remark: listed apart in the source
[14] = molecular target: T2, IGF-IR on human tumour cells (H292, …); test: cell-based or functional assay; remark: listed apart in the source
[15] = molecular target: mouse EGFR (mouse, UniProt Q01279 25-647, limits assumed); test: SPR Biacore
[16] = molecular target: rat EGFR (rat, UniProt A0ABK0LZB0 35-1214); test: SPR Biacore
[17] = molecular target: monkey EGFR (monkey); test: SPR Biacore
[18] = molecular target: T2, IGF-IR on human tumour cells (H292, …); test: cell-based or functional assay; remark: listed apart in the source

B1: I1-GS10-E1 pegylated, His-tagged (designed binder)
chain: MGVSDVPRDLEVVAATPTSLLISWSARLKVARYYRITYGETGGNSPVQEFTVPKNVYTATISGLKPGVDYTITVYAVTRFRDYQPISINYRTEIDKGSGSGSGSGSGSGSGSGSGSVSDVPRDLEVVAATPTSLLISWVAGAEDYQYYRITYGETGGNSPVQEFTVPHDLVTATISGLKPGVDYTITVYAVTDMMHVEYTEHPISINYRTEIDKPCQHHHHHH
modifications: 40 kDa branched PEG on the Cys of the C-terminal Cys tail
IC50, EGF-stimulated EGFR phosphorylation, A431 cells, In Cell Western [1]: 302 nM
IC50, EGF-stimulated EGFR phosphorylation, H292 cells, ELISA [1]: 127 nM
IC50, EGF-stimulated ERK phosphorylation, A431 cells, In Cell Western [1]: 300 nM
IC50, IGF1-stimulated IGFR phosphorylation, H292 cells, ELISA [2]: 0.9 nM

B2: I1-GS10-E1, His-tagged, non-pegylated (designed binder)
chain: MGVSDVPRDLEVVAATPTSLLISWSARLKVARYYRITYGETGGNSPVQEFTVPKNVYTATISGLKPGVDYTITVYAVTRFRDYQPISINYRTEIDKGSGSGSGSGSGSGSGSGSGSVSDVPRDLEVVAATPTSLLISWVAGAEDYQYYRITYGETGGNSPVQEFTVPHDLVTATISGLKPGVDYTITVYAVTDMMHVEYTEHPISINYRTEIDKPSQHHHHHH
IC50, EGF-stimulated EGFR phosphorylation, A431 cells, In Cell Western [1]: 93 nM
IC50, EGF-stimulated EGFR phosphorylation, H292 cells, ELISA [1]: 42 nM
IC50, EGF-stimulated ERK phosphorylation, A431 cells, In Cell Western [1]: 99 nM
IC50, IGF1-stimulated IGFR phosphorylation, H292 cells, ELISA [2]: 1 nM
Kd [3]: 4.8 nM and 10.3 nM
koff [3]: 0.000603 s⁻¹ and 0.000425 s⁻¹
Kd [4]: 0.27 nM
koff [4]: 0.000398 s⁻¹
kon [4]: 1.47e+06 M⁻¹ s⁻¹
IC50 [5]: 7 nM

B3: I1GS10-E3 (Pegylated) (designed binder)
I/E tandem 10Fn3 chain: MGVSDVPRDLEVVAATPTSLLISWSARLKVARYYRITYGETGGNSPVQEFTVPKNVYTATISGLKPGVDYTITVYAVTRFRDYQPISINYRTEIDKGSGSGSGSGSGSGSGSGSGSVSDVPRDLEVVAATPTSLLISWLPGKLRYQYYRITYGETGGNSPVQEFTVPHDLRTATISGLKPGVDYTITVYAVTNMMHVEYSEYPISINYRTEIDKPCQHHHHHH
modifications: Cys of the C-terminal Cys tail conjugated to 40 kDa branched PEG
IC50, EGF-stimulated EGFR phosphorylation, A431 cells, In Cell Western [1]: 47 nM
IC50, EGF-stimulated EGFR phosphorylation, H292 cells, ELISA [1]: 46 nM
IC50, EGF-stimulated ERK phosphorylation, A431 cells, In Cell Western [1]: 50 nM
IC50, IGF1-stimulated IGFR phosphorylation, H292 cells, ELISA [2]: 2 nM

B4: E3-GS10-I1, non-pegylated (designed binder)
chain: VSDVPRDLEVVAATPTSLLISWLPGKLRYQYYRITYGETGGNSPVQEFTVPHDLRTATISGLKPGVDYTITVYAVTNMMHVEYSEYPISINYRTEIDKGSGSGSGSGSGSGSGSGSGSVSDVPRDLEVVAATPTSLLISWSARLKVARYYRITYGETGGNSPVQEFTVPKNVYTATISGLKPGVDYTITVYAVTRFRDYQPISINYRTEIDKPSQ
A431 pEGFR IC50 (In-Cell Western) [6]: 14 nM
A431 pERK IC50 (In-Cell Western) [6]: 12 nM
H292 pEGFR IC50 (ELISA) [6]: 7 nM
H292 pIGF-IR IC50 (ELISA) [7]: 6 nM
Kd [3]: 0.66 nM
koff [3]: 0.000229 s⁻¹
kon [3]: 349000 M⁻¹ s⁻¹
Kd [4]: 0.12 nM
koff [4]: 0.000209 s⁻¹
kon [4]: 1.8e+06 M⁻¹ s⁻¹
IC50 [8]: 25 nM
Kd [9]: 0.7 nM
Kd [10]: 0.1 nM

B5: E1-GS10-I1 pegylated, His-tagged (designed binder)
chain: MGVSDVPRDLEVVAATPTSLLISWVAGAEDYQYYRITYGETGGNSPVQEFTVPHDLVTATISGLKPGVDYTITVYAVTDMMHVEYTEHPISINYRTEIDKGSGSGSGSGSGSGSGSGSGSVSDVPRDLEVVAATPTSLLISWSARLKVARYYRITYGETGGNSPVQEFTVPKNVYTATISGLKPGVDYTITVYAVTRFRDYQPISINYRTEIDKPCQHHHHHH
modifications: 40 kDa branched PEG on the Cys of the C-terminal Cys tail
notes: also called E1-GS10-I1 (with PEG)
inhibition of EGF induced EGFR phosphorylation, A431, IC50 [11]: 297 nM
inhibition of EGF induced ERK phosphorylation, A431, IC50 [11]: 295 nM
inhibition of EGFR activity, H292 cells, IC50 [11]: 123 nM
A431 pEGFR IC50 (In-Cell Western) [6]: 297 nM
A431 pERK IC50 (In-Cell Western) [6]: 295 nM
H292 pEGFR IC50 (ELISA) [6]: 123 nM
H292 pIGF-IR IC50 (ELISA) [7]: 4 nM
IC50 [8]: 396 nM
Kd [9]: 57.9 nM
Kd [10]: 2.4 nM
Kd [12]: 2.43 nM
IC50 [13]: 238 nM

B6: E3-GS10-I1 pegylated, His-tagged (designed binder)
chain: MGVSDVPRDLEVVAATPTSLLISWLPGKLRYQYYRITYGETGGNSPVQEFTVPHDLRTATISGLKPGVDYTITVYAVTNMMHVEYSEYPISINYRTEIDKGSGSGSGSGSGSGSGSGSGSVSDVPRDLEVVAATPTSLLISWSARLKVARYYRITYGETGGNSPVQEFTVPKNVYTATISGLKPGVDYTITVYAVTRFRDYQPISINYRTEIDKPCQHHHHHH
modifications: 40 kDa branched PEG on the Cys of the C-terminal Cys tail
notes: also called E3-GS10-I1-Cys (with his)
inhibition of IGFR activity, H292 cells, IC50 [14]: 6 nM
A431 pEGFR IC50 (In-Cell Western) [6]: 42 nM
A431 pERK IC50 (In-Cell Western) [6]: 40 nM
H292 pEGFR IC50 (ELISA) [6]: 10 nM
H292 pIGF-IR IC50 (ELISA) [7]: 6 nM
IC50 [8]: 80.5 nM
Kd [9]: 10.4 nM
Kd [10]: 0.74 nM
IC50 [13]: 89 nM

B7: I1-GS10-E3, non-pegylated (designed binder)
chain: VSDVPRDLEVVAATPTSLLISWSARLKVARYYRITYGETGGNSPVQEFTVPKNVYTATISGLKPGVDYTITVYAVTRFRDYQPISINYRTEIDKGSGSGSGSGSGSGSGSGSGSVSDVPRDLEVVAATPTSLLISWLPGKLRYQYYRITYGETGGNSPVQEFTVPHDLRTATISGLKPGVDYTITVYAVTNMMHVEYSEYPISINYRTEIDKPSQ
IC50, EGF-stimulated EGFR phosphorylation, A431 cells, In Cell Western [1]: 47 nM
IC50, EGF-stimulated EGFR phosphorylation, H292 cells, ELISA [1]: 25 nM
IC50, EGF-stimulated ERK phosphorylation, A431 cells, In Cell Western [1]: 42 nM
IC50, IGF1-stimulated IGFR phosphorylation, H292 cells, ELISA [2]: 19 nM
Kd [3]: 2.48 nM
koff [3]: 0.000291 s⁻¹
kon [3]: 117000 M⁻¹ s⁻¹
Kd [4]: 0.03 nM
koff [4]: 4.54e-05 s⁻¹
kon [4]: 1.37e+06 M⁻¹ s⁻¹

B8: I1-GS10-E5 pegylated, His-tagged (designed binder)
chain: MGVSDVPRDLEVVAATPTSLLISWSARLKVARYYRITYGETGGNSPVQEFTVPKNVYTATISGLKPGVDYTITVYAVTRFRDYQPISINYRTEIDKGSGSGSGSGSGSGSGSGSGSVSDVPRDLEVVAATPTSLLISWWAPVDRYQYYRITYGETGGNSPVQEFTVPRDVYTATISGLKPGVDYTITVYAVTDYKPHADGPHTYHESPISINYRTEIDKPCQHHHHHH
modifications: 40 kDa branched PEG on the Cys of the C-terminal Cys tail
notes: also called I1-GS10-E5 (with Peg)
Kd [15]: 3.4 nM
Kd [16]: 3.6 nM
Kd [17]: 5.1 nM
inhibition of RH41 cell proliferation, IC50 [14]: 200 pM
pIGFR IC50 [18]: 2.2 nM
